Biological target: T1, GST-FliM fusion protein (Agrobacterium fabrum C58, UniProt Q44457 1-321)
T1 construct: Flagellar motor switch protein FliM (atu0561) of Agrobacterium fabrum C58; Cloned in pGEX-4T-1; not shown: GST, N-terminal, kept
T1 sequence (looked up): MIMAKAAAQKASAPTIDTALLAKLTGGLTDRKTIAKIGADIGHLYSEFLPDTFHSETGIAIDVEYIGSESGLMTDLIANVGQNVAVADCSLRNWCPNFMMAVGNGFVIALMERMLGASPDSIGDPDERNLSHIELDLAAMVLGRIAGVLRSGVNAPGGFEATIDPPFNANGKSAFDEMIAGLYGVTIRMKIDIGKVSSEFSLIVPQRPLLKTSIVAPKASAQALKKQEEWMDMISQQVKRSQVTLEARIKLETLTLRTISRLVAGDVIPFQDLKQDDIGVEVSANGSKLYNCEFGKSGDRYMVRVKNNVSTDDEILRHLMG
Experiment: pull-down; GST-FliM on glutathione-Sepharose 4B beads, crude extract of CheY-6×his in PBS with MgCl2 and acetyl phosphate (phosphorylating conditions), 4 °C, 1 h; Western blot with anti-6×his antibody
Conditions: one partner purified

B1: CheY2-6×his fusion protein, phosphorylated with acetyl phosphate (natural protein, Agrobacterium fabrum C58, UniProt Q7D1A5 1-129, looked up)
chain: MSLAEKIKVLIVDDQVTSRLLLSDALTQLGFKQITSAGDGEQGLKIMEQQPHHLVISDFNMPKMDGLGFLHAVRANPTTKKAAFIILTAQGDRALVQKAAQLGANNVLAKPFTIDKMRAAIEAVFGSLK
modifications: phosphorylated by acetyl phosphate (residue not given)
notes: Chemotaxis response regulator CheY2 (atu0520) of Agrobacterium fabrum C58; Same construct as m11; the extent of phosphorylation was not measured; also called CheY2-P; source: E. coli BL21 (DE3), crude extract, with acetyl phosphate (phosphorylating conditions); not shown: His6, C-terminal, kept
For B1, the “fold band intensity pulled down, against CheY1-6×his” value was ~5 fold.
